Legend:
[1] = molecular target: T1, snRNP total proteins (TPs; seven Sm proteins plus U1 snRNP proteins) (Homo sapiens, UniProt P14678;P62314;P62316;P62318;P62304;P62306;P62308;P08621;P09012;P09234 …); experiment: pulldown; Sm core assembly, Y12 IP; conditions: tags: anti-TMG immunopurified from HeLa; label: 32P-UTP
[2] = molecular target: T1, snRNP total proteins (TPs; seven Sm …); experiment: pulldown; Y12 IP; phosphorothioate interference at U92, C86, G109, none in Sm site; conditions: tags: anti-TMG immunopurified from HeLa; label: 32P-UTP

Binder | binding result [1] | binding result [2]
AUUUCUG (ssRNA, [none]) [HSUR5-60 Sm U4C] | binds | 
ACUUUUG (ssRNA, [none]) [HSUR5-60 Sm U1C] | binds | 
AUCUUUG (ssRNA, [none]) [HSUR5-60 Sm U2C] | binds | 
AUUCUUG (ssRNA, [none]) [HSUR5-60 Sm U3C] | binds | 
AUUUUUG (ssRNA) [HSUR5-60 (nt 60-114)] |  | binds

Source: patent US20080194027, “Compositions, methods and kits based on small nuclear RNAs” (Trustees of the University of Pennsylvania, published 2008)
